Substrate: O=C(O)C(=O)[C@@H](O)[C@H](O)C(=O)CO
Experiment: Spectrophotometric enzymatic activity (decrease in absorption at 340 nm), purified enzyme solution of Example 1
Type: biochemical, Corynebacterium sp. No. 20A-77 mutant (FERM-BP 108)
Details: other: varying concentrations of Ca-25DKG, 0.1M TB pH 7, 30° C.

B1: 25DKG-Rase (Corynebacterium sp. SHS752001) (protein)
chain: PNIPTISLNDGRPFAEPGLGTYNLRGDEGVAAMVAAIDSGYRLLDTAVNYENESEVGRAVRASSVDRDELIVASKIPGRQHGRAEAVDSIRGSLDRLGLDVIDLQLIHWPNPSVGRWLDTWRGMIDAREAGLVRSIGVSNFTEPMLKTLIDETGVTPAVNQVELHPYFPQAALRAFHDEHGIRTESWSPLARRSELLTEQLLQELAVVYGVTPTQVVLRWHVQLGSTPIPKSADPDRQRENADVFGFALTADQVDAISGLERGRLWDGDPDTHEEM
notes: The enzyme is an intracellular enzyme extracted from the cells of the 2KLG producing strain; made in house; host or cells: natural producer Corynebacterium sp; No. 20A-77 mutant FERM-BP 108, enzyme purified from sonicated cells; not recombinant
- Km: 1.8 ± 1.0 mM

Reference: patent US4748122A, “2,5-diketo-D-gluconic acid reductase” (Shionogi & Co., Ltd., priority 1983, dated 1988)
